These results are taken from publication PMC11413003.

Experiment [1] deals with complex III2 (CIII2) dimer of S. cerevisiae (S. cerevisiae) (UniProt P08067). The experiment is described as follows: cryo-EM structure; 10.5 uM supercomplex with 126 uM S. cerevisiae cyt. c (~1:12) in 20 mM KCl, 20 mM KH2PO4 pH 7.4, 0.01 % GDN; 3D classification with a mask over the cyt. c region.
Experiment [2] deals with S. cerevisiae CIII2CIV1/2 supercomplex (S. cerevisiae) (UniProt P08067).
The target is the same in experiment [3]. The experiment is described as follows: cryo-EM structure; 10.5 uM supercomplex with 126 uM S. cerevisiae cyt. c (~1:12) in 20 mM KCl, 20 mM KH2PO4 pH 7.4, 0.01 % GDN; 3D classification with a mask over the cyt. c region.

“complex III2 (CIII2) dimer of S. cerevisiae (from UniProt P08067 31-215; P07143 62-309; P00127 1-147; P22289 1-66)” registered a stoichiometry N in experiment [1] of 2. Take “cytochrome c from S. cerevisiae (from UniProt P00044 1-109) (natural protein)”: the QH2:O2 oxidoreductase activity (O2 reduction upon addition of QH2) of the supercomplex, cyt. c varied up to ~50 uM, 20 mM KCl in experiment [2] is 50 electrons/s. Moreover, the stoichiometry N (cyt. c per CIII monomer-CIV pair) in experiment [3] came out at 2.

As a reminder, the stoichiometry N is the number of molecules, sites or subunits per partner or assembly.
